Measured values reported in the supplement of paper PMC5998384.

Assays:
HeLa Kyoto [1] = assay: thermal stability score vs G1/S (z-score of summed log2 fold changes over temperatures); higher = more thermally stable than in G1/S
HeLa Kyoto [2] = assay: solubility in G1/S (NP-40 vs SDS abundance) (log2 ratio); higher = more soluble; settings: cell cycle stage: G1/S
HeLa Kyoto [3] = assay: solubility change mitosis vs G1/S (difference of NP-40 vs SDS log2 ratios) (log2 ratio difference); higher = more soluble in mitosis
HeLa Kyoto [4] = assay: melting temperature (median over replicates), in situ; higher = more thermally stable
[5] = cell cycle stage: early G1 (4.5 h after nocodazole release)
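For melting temperature (median over replicates), in situ in this document: HeLa Kyoto cells synchronized by double thymidine or nocodazole block, proteins quantified by TMT10plex mass spectrometry, three independent biological replicates.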
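For solubility change mitosis vs G1/S (difference of NP-40 vs SDS log2 ratios) in this document: synchronized HeLa Kyoto cells (double thymidine block for G1/S, nocodazole release for mitosis), protein amounts in NP-40 versus SDS lysates quantified by mass spectrometry, three biological replicates.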
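For solubility in G1/S (NP-40 vs SDS abundance) in this document: HeLa Kyoto cells arrested at G1/S by double thymidine block, proteins quantified by TMT10plex mass spectrometry in mild NP-40 versus SDS extracts, three biological replicates.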
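For thermal stability score vs G1/S (z-score of summed log2 fold changes over temperatures) in this document: synchronized HeLa Kyoto cells, proteins quantified by TMT10plex mass spectrometry, three biological replicates, mitosis taken 0.5 h after nocodazole release, G1/S directly after double thymidine block.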

Sequence	thermal stability score (HeLa Kyoto [1]; [5])	thermal stability score (HeLa Kyoto [1]; cell cycle stage: mitosis)	solubility in G1/S (log2) (HeLa Kyoto [2])	solubility change mitosis (log2) (HeLa Kyoto [3])	melting temperature (HeLa Kyoto [4]; cell cycle stage: G1/S)	melting temperature (HeLa Kyoto [4]; cell cycle stage: mitosis)
MLVLFETSVGYAIFKVLNEKKLQEVDSLWKEFETPEKANKIVKLKHFEKFQDTAEALAAFTALMEGKINKQLKKVLKKIVKEAHEPLAVADAKLGGVIKEKLNLSCIHSPVVNELMRGIRSQMDGLIPGVEPREMAAMCLGLAHSLSRYRLKFSADKVDTMIVQAISLLDDLDKELNNYIMRCREWYGWHFPELGKIISDNLTYCKCLQKVGDRKNYASAKLSELLPEEVEAEVKAAAEISMGTEVSEEDICNILHLCTQVIEISEYRTQLYEYLQNRMMAIAPNVTVMVGELVGARLIAHAGSLLNLAKHAASTVQILGAEKALFRALKSRRDTPKYGLIYHASLVGQTSPKHKGKISRMLAAKTVLAIRYDAFGEDSSSAMGVENRAKLEARLRTLEDRGIRKISGTGKALAKTEKYEHKSEVKTYDPSGDSTLPTCSKKRKIEQVDKEDEITEKKAKKAKIKVKVEEEEEEKVAEEEETSVKKKKKRGKKKHIKEEPLSEEEPCTSTAIASPEKKKKKKKKRENED [NOP58]	-0.671	-1.23	-1.64	1.07	52.5 °C	51.5 °C
MLWSGCRRFGARLGCLPGGLRVLVQTGHRSLTSCIDPSMGLNEEQKEFQKVAFDFAAREMAPNMAEWDQKELFPVDVMRKAAQLGFGGVYIQTDVGGSGLSRLDTSVIFEALATGCTSTTAYISIHNMCAWMIDSFGNEEQRHKFCPPLCTMEKFASYCLTEPGSGSDAASLLTSAKKQGDHYILNGSKAFISGAGESDIYVVMCRTGGPGPKGISCIVVEKGTPGLSFGKKEKKVGWNSQPTRAVIFEDCAVPVANRIGSEGQGFLIAVRGLNGGRINIASCSLGAAHASVILTRDHLNVRKQFGEPLASNQYLQFTLADMATRLVAARLMVRNAAVALQEERKDAVALCSMAKLFATDECFAICNQALQMHGGYGYLKDYAVQQYVRDSRVHQILEGSNEVMRILISRSLLQE [ACAD8]	-0.89	-3.82	-0.0509	-0.0672	54.9 °C	55.2 °C
MMAIRELKVCLLGDTGVGKSSIVCRFVQDHFDHNISPTIGASFMTKTVPCGNELHKFLIWDTAGQERFHSLAPMYYRGSAAAVIVYDITKQDSFYTLKKWVKELKEHGPENIVMAIAGNKCDLSDIREVPLKDAKEYAESIGAIVVETSAKNAINIEELFQGISRQIPPLDPHENGNNGTIKVEKPTMQASRRCC [RAB31]	-1.38	-0.537	-0.166	0.0123	54.6 °C	53.9 °C
MMCEVMPTISEAEGPPGGGGGHGSGSPSQPDADSHFEQLMVSMLEERDRLLDTLRETQETLALTQGKLHEVGHERDSLQRQLNTALPQEFAALTKELNVCREQLLEREEEIAELKAERNNTRLLLEHLECLVSRHERSLRMTVVKRQAQSPAGVSSEVEVLKALKSLFEHHKALDEKVRERLRVALERCSLLEEELGATHKELMILKEQNNQKKTLTDGVLDINHEQENTPSTSGKRSSDGSLSHEEDLAKVIELQEIISKQSREQSQMKERLASLSSHVTELEEDLDTARKDLIKSEEMNTKLQRDVREAMAQKEDMEERITTLEKRYLAAQREATSVHDLNDKLENEIANKDSMHRQTEDKNRQLQERLELAEQKLQQTLRKAETLPEVEAELAQRVAALSKAEERHGNIEERLRQMEAQLEEKNQELQRARQREKMNEEHNKRLSDTVDKLLSESNERLQLHLKERMAALEDKNSLLREVESAKKQLEETQHDKDQLVLNIEALRAELDHMRLRGASLHHGRPHLGSVPDFRFPMADGHTDSYSTSAVLRRPQKGRLAALRDEPSKVQTLNEQDWERAQQASVLANVAQAFESDADVSDGEDDRDTLLSSVDLLSPSGQADAHTLAMMLQEQLDAINKEIRLIQEEKENTEQRAEEIESRVGSGSLDNLGRFRSMSSIPPYPASSLASSSPPGSGRSTPRRIPHSPAREVDRLGVMTLLPPSREEVRDDKTTIKCETSPPSSPRALRLDRLHKGALHTVSHEDIRDIRNSTGSQDGPVSNPSSSNSSQDSLHKAPKKKGIKSSIGRLFGKKEKGRPGQTGKEALGQAGVSETDNSSQDALGLSKLGGQAEKNRKLQKKHELLEEARRQGLPFAQWDGPTVVVWLELWVGMPAWYVAACRANVKSGAIMSALSDTEIQREIGISNPLHRLKLRLAIQEIMSLTSPSAPPTSRTTLAYGDMNHEWIGNEWLPSLGLPQYRSYFMECLVDARMLDHLTKKDLRGQLKMVDSFHRNSFQCGIMCLRRLNYDRKELERKREESQSEIKDVLVWSNDRVIRWILSIGLKEYANNLIESGVHGALLALDETFDFSALALLLQIPTQNTQARAVLEREFNNLLVMGTDRRFDEDDDKSFRRAPSWRKKFRPKDIRGLAAGSAETLPANFRVTSSMSSPSMQPKKMQMDGNVSGTQRLDSATVRTYSC [PPFIA1]	1.52	1.91	0.137	-0.0196	49.8 °C	50.2 °C
